The DeepSol protein solubility set

Assay: soluble on expression in E. coli; label from the status in PepcDB or PDB records

| Sequence | soluble on expression in E. coli |
| --- | --- |
| MVGRKRRASMSITDGNGSLSDTVRPGDWVVVAELATPAFSVKNPESYQVASPLPLPLPSTLLGGLMRGASLLGSCTGGIASQSCIKKTGRIVKAAAPLSKPGQILGVEWEVVLRRLRKVLEPDSEEGSTRENRGNRVLDELSRISDALLRGYITPYNPVYAVFVARGRDNANRIEKALWYIDRLGDSESLVSARPVGRCQLAEFRSKSVNTPVALDSAVGGSFTVVYAPARAGRTGRTRRSEAIAIAMPVKKEAVERGYVLVYSEIEVEGSVYGCSVEGIDGRINVAVHESFHEVSGYGIWMPA | not soluble |
| MGSDKIHHHHHHMIPEEIYKILRKQRYQIDGHTAVKLCGWVRKKMLEDKNCYKSKFYGIETHRCIQCTPSVIWCQQNCIFCWRVLPRDIGIDISQIKEPKWEEPEVVYEKILAMHKRIIMGYAGVLDRVGEKKFKEALEPKHVAISLSGEPTLYPYLDELIKIFHKNGFTTFVVSNGILTDVIEKIEPTQLYISLDAYDLDSYRRICGGKKEYWESILNTLDILKEKKRTCIRTTLIRGYNDDILKFVELYERADVHFIELKSYMHVGYSQKRLKKEDMLQHDEILKLAKMLDENSSYKLIDDSEDSRVALLQNENRKINPKL | not soluble |
| MAALVDLVNFQLENAKALSTVLRQETQAITARVSSEIESIAKRKMTLIDQLRTTDQRIASHPHVNQLTEDEHLSQVVAQIQSIVLDCQQVNRVNGESLSRAQLSFNKLNNMLQHTHGKIGMTYNAGGKTHTISTLGTNIKA | not soluble |
| MAGDPNSMPVLSIIACGMLEDELVHVLIRDCEIRQLIVVENNNISGFLRKLRSGGLVPRVISLDRVPMLLETGFSPGFKKISKMLMHFHFFRKMNEKIESGAGIKIDVVINLLRLGLHVDLELLKSEVYKNVREMAKFSDGILIFYGTCGHVLGGLERDFADLECPLFFLKDSSGEIVEDCISAALGGNDAYAGAMLECRGKGTIYLTPMWASSWKMLEKESGNRDLNNRYLKNSRYCLAAKIDSGLLYDPYFDRNVEDFALTFGMKIINMSGSSEVAEKSYLAARKAVLRKTAAALEHHHHHH | not soluble |
| MSKEIDISIRYLENVLSTNNSTLILSSTAAVLEAVSKNCDTTNGELKRSIISLLRIIDKKCFLNQDVDVNQIKFSLQEVGKLSTKYPKSHQKPGNEVKVKTNAEFREIETVPNPDEENIDNLLNQLNLKKVPSFSPAFPDIGDDSDDENGITTKQKEEERAEQHGQKVCEEEVVKLPDGREIRMKKTKTVNVKQTTKHVTISTKSANMPEVSRTFMNARRGFDEDEEEENTNFGSSNMRGGDPFERFRSMLKDKDEKIEAIEGESSSDPGTPGSSSKSKTIERTSEVSQKVSEKKEKDGRLLAEHEASKLDKSNLFAKQVDTYQGAALIDRKGEGSYEESTLVRSALPQDSQVATPPRMHVVEYMMMFGDDKKNNENEYLKGTTISSYVRLNNNLTTHEEQFKKKIQFEFSTAGTSSTTIDLDNLSDLLNQTDFNCLRPPNKFLEDTPLIVEQPKAIDWQREPTSAPPEKDLLLEHDGVDYVIFREKEGKVLEVRGGPKDALIVYATQSTHSSLLYQEAFLITFRTFISSLELVNKLIKRYLYMSLADDSQSESIARHTFSVIVRIIDETTQYELDFDLITSVTSFVYRLIHDGNFTYSRILRTRLLDRIKDSFDIQTVLGTNLCKPRKPHDLFDFKSAEIACQLTFIDSQLYHRIESAELLWWAQEQNEKKSKNLVNFTEQFNNLSFWVRTLIITQGTQKERERHMMKFVKIMKHLREMCNFNSYLAILSAIMSTPLARLEWSKNIKDALKEHTAVMDTAQSYKNYRALLQTAKPPCVPYIGIILQDLTFVHAGNPDTIPSDRCHGAKNMINFLKRWNQFAILDSIRKLKKWNYDIKKNDIVVQYFNGFKDCIDEERTWQLSHQIKPSNRKSKTQA | not soluble |
| MSLKLITCDLDGTLLNSSMEISDANVQAIKRAQENGIEFMVASGRAPHESQPMLKEYWIDCSFINLNGGLVFDTAGNLIVKNPLKLETAKKICRLLKKEGFYFELVTSNHVYSEDLSQRITNVAHLMVELNPMLTFKEAVLVSASKPAIVSIQQVPSYEDLMDEPGTEVMKILVFDSRGQYAFTDVIKKIEEIDKLSITSSAADNIEINAASAQKGQSLLDYAAAKGIKREEIAAIGDNLNDESMIQAAGTGVAMGNAVPQIKTIASFVTKSNNEDGVAWAIDKIIADNQKEGHHHHHH | soluble |
| MGSDKIHHHHHHRLVEVGKGFSSTSVNTTVFRNNSIVTHGNTQYISYYDAEGWLMLGKRRLGTGEWILHRTQYKGHVKDAHNIISMMVDGDGYLHLSFDHHGHKLNYCRSIAPDTLVLGDKEPMIGNEEEDVTYPEFHLLADGGLLFVYRSGASGRGNMVMNRYDVKSRKWERVQDVLVDGENERNAYWQLYVDQSGTIHLSWVWRETWHVETNHDLCYARSFDGGRTWYKTNGQKYELPIRLGNAEYACRIPQNAELINQTSMSTDAGGHPYIATYWRNPDSDVPQYRIVWHDGVNWHNRQVSERKAPFSLKGGGTKMIPMSRPRMVVDNGEVYYLFRDQERGSKVSMYYTKDIQFGEWHVKDLTDFAVNAWEPSHDTELWKMKKQLHIYVQDTRQGDGEKQVETEPQMVYVLEL | not soluble |
| MGLIDVLKSFKSPSGREIRILLLGLDNAGKTTILKQLSSEDVQHVTPTKGFNVKTVAAMGDIRLNVWDIGGQRSIRPYWSNYYENIDTLIFVIDSNDKKRFDEMNIELGELLDEEKLRKVPVLIFANKQDLVTAASSEEITRKLNLDLLRDRTWHIQACSALKNEGINDGITWVASNLKPASKK | not soluble |
| MTTHEKVILVGVETEKNYQTFSASMEELANLTETANGEVVFVLTQKRPQVDRQTVIGKGKLEELIQLTDAYEADLVIFNHELTPRQNQLLSEALAVRVIDRVQLILDIFALRARSKEGKLQVELAQLDYLLPRLAGQGKQLSRLGGGIGTRGPGETKLESDRRHIRNKILGIRRELKEVTAHRERSRQKRQNSELFQIGLIGYTNAGKSTILNMLTTAGTYSEDQLFATLDPLTKKWQLPQGMEVTLTDTVGFIQDLPTQLIEAFQSTLEESRTMDLLLHVVDASAPDRLQHERTVQTLMKELALENIPCLTVYNKRDQVDSKEFVPTLFPNVLISTKISEDKERLVQAIRAQMMELLEPYQLEISPTDGQLLSELRRMTLMISEEYAENENRYIVKGFAKKKSKWLAESEKEAAALEHHHHHH | not soluble |
| GSHMGIKNDLEIRLQKLQQQGNFKNYLEQYPTDASTAAYFLIEIYNDGNIGGRSVIDAGTGNGILACGSYLLGAESVTAFDIDPDAIETAKRNCGGVNFMVADVSEISGKYDTWIMNPPFGSVVKHSDRAFIDKAFETSMWIYSIGNAKARDFLRREFSARGDVFREEKVYITVPRIYRHHSYDRARIEAVIFGVRNHSF | soluble |
| MSLNQPDLFSSTSGTVGGLAVQSILEGFKSHYARDQETELSLEEYLSLAKQDPMAYASPAERMLAAIGEPELIDTRNDPRLSRLFSNRLVRRYPAFKEFYGLEDVIDQIVAFFKHAAQGLEERKQILYLLGPVGGGKSSIAERLKVLMEAYPIYALKGSPVNESPLGLFHPDRFGDTLEQEYGIARRYLCGIMSPWAVKRLREFDGDISQFRVVRLNPSVLRQVAIAKTEPGDENNQDISSLVGKVDIRKLERYAQDDPDAYSYSGGLCLANQGLLEFVEMFKAPIKMLHPLLTATQEGNFKGTEGFSAIPFNGMILAHSNESEWQTFRNNKHNEAFLDRIYIVKVPYCLQVSEEVCIYEKLLRHSSLAQAPCAPGTLDMMAQFSVLTRLKEPENSSIYSKLRVYDGESLKDVDPKAKALQEYKDYAGTDEGMTGVSTRFAYKILSSVFNYDQTEVAANPVHLMYVLEQRIAREDFPEETRRRYLEFIKGYLAPRYAEFIGKEIQTAYLESYSEYGQNIFDRYVTFADCWIQDEEFRDPETGESFDRSALNDELEKIEKPAGIANPKDFRNEIVNFVLRARANNAGRNPNWTSYEKLREVIEKKMFSNTEDLLPVISFNAKASAEDRSKHQSFVDRMVDKGYTEKQVRLLCEWYLRVRKSSEGHHHHHH | soluble |
| MIHTLAKCEWIKKSLPLCLIGDSGTGKSHLLIALGTEAAMAGYRVKYVLATKLVNELVEAADEKQLTKTIARYGRVDLLCIDELGYMELDRRGAELLFQVLTEREEKNSVAIASNESFSGWTKTFTDPRLCAAIVDRLTFGGNIIETGTDSYRLATTRARAEQQAVVLEHHHHHH | not soluble |
| MGSDKIHHHHHHMLLYIHGFNSSPFSDKAIMTAQYMAQHHPSVLFHQPQLPNTPKAAMALLLEYVEAALKDDEPLTYIGSSLGGYFASYLAEHYGGRAVLVNPAVKPFELFDEFMGPQFNPYTGENYQVLPEHKMEVAEFNTPVIRNPDRFLVLLQSGDEVLDYREALSKYHHCQLRIEAAGDHSFVGYEHYLQTISQFLHLP | not soluble |
| SLKNKTLIALLLACSPTLAFAHNLTVGSPVPAVGVEKHGEIVLQDNNINYQKWRSADLLGKVRVIQAIAGRSSSKEMNAPLMAAITAAKFPAESYQTTTIINQDDAIWGTSSFVKSSAQDSKKEFPWSSMVLDEFGLVAQAWQLQAESSAIIVQDKQGNVLFVKEGALNEADIQTVLGLIQQNL | not soluble |
| MDDQGCPRCKTTKYRNPSLKLMVNVCGHTLCESCVDLLFVRGAGNCPECGTPLRKSNFRVQLFEDPTVDKEVEIRKKVLKIYNKREEDFPSLREYNDFLEEVEEIVFNLTNNVDLDNTKKKMEIYQKENKDVIQKNKLKLTREQEELEEALEVERQENEQRRLFIQKEEQLQQILKRKNKQAFLDELESSDLPVALLLAQHKDRSTQLEMQLEKPKPVKPVTFSTGIKMGQHISLAPIHKLEEALYEYQPLQIETYGPHVPELEMLGRLGYLNHVRAASPQDLAGGYTSSLACHRALQDAFSGLFWQPS | soluble |
| MGSDKIHHHHHHMLTVSDVSLRFSDRKLFDEVNINFTAGNTYGLIGANGAGKSTFLKILAGDIEPTTGHIALGPDERLSVLRQNHFDYEDERVIDVVIMGNETLYSIMKEKDAIYMKEDFSDEDGVRAAELEGEFAELGGWEAESEASQLLQNLNISEELHYQNMSELANGDKVKVLLAKALFGKPDVLLLDEPTNGLDIQSITWLEDFLIDFENTVIVVSHDRHFLNKVCTHMADLDFGKIKLFVGNYDFWKESSELAARLQADRNAKAEEKIKQLQEFVARFSANASKSKQATSRKKMLDKIELEEIVPSSRKYPFVNFKAEREMGNDLLTVENLSVTIDGEKILDNISFILRPGDKTALIGQNDIQTTALIRALMGDIEYEGTIKWGVTTSRSYLPKDNSRDFASGESILEWLRQFASKEEDDNTFLRGFLGRMLFSGDEVNKSVNVLSGGEKVRVMLSKLMLLKSNVLVLDDPTNHLDLESISSLNDGLKDFKESIIFASHDHEFIQTLANHIIVLSKNGVIDRIDETYDEFLENTEVQAKVAQLWK | not soluble |
| MSLTSTIEELLTAARRRRVFSAAGWSVGTATTTLCRGLLGTTAWDPPATAVTEDSRWDLASMTKPIVAIAVMSLIEDGVLTLDDTIAEHLPDYADTDKARIRVANLLTHTSGIPGRQPLYQWNRARDELLTAIRRLPLLGPPGAQVSYSSPGFILLGLIAESAAGMPLDQLVAERVTRPAGMVDAGFASPPTELAVATEDDPWRGHLVRGEVHDENAVVLGAPAGHAGMFATLVDMEALGRTLCAQGWGAHGRVLTPAGYAAMITPRTDHLPLRRTLGWQGVDAVDATAGDLIGPDGYGHTGFTGTSLWIDPDRGSYVVLLTNRIHPNRENTAISRVRRAVNNIGFALASEGHHHHHH | soluble |
| MPEPTPTAYPVRLDELINAIKRVHSDVLDQLSDAVLAAEHLGEIADHLIGHFVDQARRSGASWSDIGKSMGVTKQAAQKRFVPRAEATTLDSNQGFRRFTPRARNAVVAAQNAAHGAASSEITPDHLLLGVLTDPAALATALLQQQEIDIATLRTAVTLPPAVTEPPQPIPFSGPARKVLELTFREALRLGHNYIGTEHLLLALLELEDGDGPLHRSGVDKSRAEADLITTLASLTGANAAGATDAGATDAG | soluble |
